Assay results published in patent US11278600B2, “Human alpha-galactosidase variants” (Codexis, Inc., priority 2014, dated 2022).

How the values were obtained:
Assay type in all cases: biochemical
[1] = HTP-analysis of supernatants pretreated with base (MUGal hydrolysis); settings: challenge at pH 7.6; activity of the variant/activity of Rd2BB (SEQ ID NO: 10); yeast supernatant
Procedure, shortened: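 GLA variants secreted from yeast INVSc1; culture supernatants pre-incubated with McIlvaine buffer pH 7.0–8.2 or 200 mM bicarbonate pH 9.1–9.7 at 37° C. for 1–18 h. Residual activity: MUGal (4 mM stock) hydrolysis at pH 4.3–4.8, 37° C., 30–180 min, carbonate quench; fluorescence Ex 355/Em 448 nm.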

[2] = HTP-analysis of supernatants pretreated with acid (MUGal hydrolysis); settings: challenge at pH 4.2; activity of the variant/activity of Rd2BB (SEQ ID NO: 10); yeast supernatant
Procedure, shortened: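 Fluorescence of MUGal hydrolysis (Ex. 355 nm, Em. 448 nm) is read after sodium carbonate quench. The enzyme source is INVSc1 yeast culture supernatant, first exposed to pH 3.3-4.3 McIlvaine buffer at 37° C. for 1-3 h, then reacted at pH 4.8 for 30-180 minutes.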

[3] = HTP-analysis of yeast culture supernatants, no challenge (MUGal hydrolysis); settings: activity of the variant/activity of Rd2BB (SEQ ID NO: 10), yeast supernatant
Procedure, shortened: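 GLA variants were expressed in INVSc1 yeast grown in SD-Ura broth with glucose at 30° C., and culture supernatants were collected after 66-84 h. Supernatant was mixed with McIlvaine buffer pH 4.8 and MUGal (2 mM stock) in 50 mM citrate, 200 mM KCl, pH 4.6, incubated at 37° C. for 30-180 minutes, then quenched with sodium carbonate.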

B1: 206 (protein)
chain: LDNGLARTPTMGWLHWERFMCNLDCQEEPDSCISEKLFMEMAELMVSEGWKDAGYEYLCIDDCWMAPQRDSEGRLQADPQRFPHGIRQLANYVHSKGLKLGIYADVGNKTCAGFPGSFGYYDIDAQTFADWGVDLLKFDGCYCDSLENLADGYKHMSLALNRTGRSIVYSCEWPLYMWPFQKPNYTEIRQYCNHWRNFADIDDSWASIKSILDWTSFNQERIVDVAGPGGWNDPDMLVIGNFGLSWNQQVTQMALWAIMAAPLFMSNDLRHISPQAKALLQDKDVIAINQDPLGKQGYQLRQGDNFEVWERPLSGLAWAVAMINRQEIGGPRSYTIAVASLGKGVACNPACFITQLLPVKRKLGFYNWTSRLRSHINPTGTVLLQLENTMQMSLKDLL
modifications: Synthetic Polypeptide sequence of Variant No. 206
Relative Activity of GLA Variants After Challenge at pH 7.6 [1]: +++ (+++ = >2.5 relative activity over Rd2BB (SEQ ID NO: 10))
Relative Activity of GLA Variants After Challenge at pH 4.2 [2]: +++ (+++ = >2.5 relative activity over Rd2BB (SEQ ID NO: 10))
Relative Activity of GLA Variants After No Challenge (NC) [3]: +++ (+++ = >2.5 relative activity over Rd2BB (SEQ ID NO: 10))

B2: 207 (protein)
chain: LDNGLARTPTMGWLHWERFMCNLDCQEEPDSCISEKLFMEMAELMVSEGWKDAGYEYLCIDDCWMAPQRDSEGRLQADPQRFPHGIRQLANYVHSKGLKLGIYADVGNKTCAGFPGSFGYYDIDAQTFADWGVDLLKFDGCYCDSLENLADGYKHMSLALNRTGRSIVYSCEWPLYMWPFQKPNYTEIRQYCNHWRNFADIDDSWASIKSILDWTSFNQERIVDVAGPGGWNDPDMLVIGNFGLSWNQQVTQMALWAIMAAPLFMSNDLRHISPQAKALLQDKDVIAINQDPLGKQGYQLRQGDNFEVWERPLSGLAWAVAMINRQEIGGPRSYTIAVASLGKGVACNPACFITQLLPVKRKLGFYNWTSRLKSHINPTGTVLLQLENTMQMSKDLLL
modifications: Synthetic Polypeptide sequence of Variant No. 207 of mature Human GLA
Relative Activity of GLA Variants After Challenge at pH 7.6 [1]: +++ (+++ = >2.5 relative activity over Rd2BB (SEQ ID NO: 10))
Relative Activity of GLA Variants After Challenge at pH 4.2 [2]: +++ (+++ = >2.5 relative activity over Rd2BB (SEQ ID NO: 10))
Relative Activity of GLA Variants After No Challenge (NC) [3]: ++ (++ = 1.5 to 2.5 relative activity over Rd2BB (SEQ ID NO: 10))

B3: 212 (protein)
chain: LDNGLARTPTMGWLHWERFMCNLDCQEEPDSCISEKLFMEMAELMVSEGWKDAGYEYLCIDDCWMAPQRDSEGRLQADPQRFPHGIRQLANYVHSKGLKLGIYADVGNKTCAGFPGSFGYYDIDAQTFADWGVDLLKFDGCYCDSLENLADGYKHMSLALNRTGRSIVYSCEWPLYMWPFQKPNYTEIRQYCNHWRNFADIDDSWASIKSILDWTSFNQERIVDVAGPGGWNDPDMLVIGNFGLSWNQQVTQMALWAIMAAPLFMSNDLRHISPQAKALLQDKDVIAINQDPLGKQGYQLRQGDNFEVWERPLSGLAWAVAMINRQEIGGPRSYTIAVASLGKGVACNPACFITQLLPVKRKLGLYNWTSRLKSHVNPTGTVLLQLENTMQMSKDLLL
modifications: Synthetic Polypeptide sequence of Variant No. 212 of mature Human GLA
Relative Activity of GLA Variants After Challenge at pH 7.6 [1]: ++ (++ = 1.5 to 2.5 relative activity over Rd2BB (SEQ ID NO: 10))
Relative Activity of GLA Variants After Challenge at pH 4.2 [2]: ++ (++ = 1.5 to 2.5 relative activity over Rd2BB (SEQ ID NO: 10))
Relative Activity of GLA Variants After No Challenge (NC) [3]: ++ (++ = 1.5 to 2.5 relative activity over Rd2BB (SEQ ID NO: 10))

B4: 209 (protein)
chain: LDNGLARTPTMGWLHWERFMCNLDCQEEPDSCISEKLFMEMAELMVSEGWKDAGYEYLCIDDCWMAPQRDSEGRLQADPQRFPHGIRQLANYVHSKGLKLGIYADVGNKTCAGFPGSFGYYDIDAQTFADWGVDLLKFDGCYCDSLENLADGYKHMSLALNRTGRSIVYSCEWPLYMWPFQKPNYTEIRQYCNHWRNFADIDDSWASIKSILDWTSFNQERIVDVAGPGGWNDPDMLVIGNFGLSWNQQVTQMALWAIMAAPLFMSNDLRHISPQAKALLQDKDVIAINQDPLGKQGYQLRQGDNFEVWERPLSGLAWAVAMINRQEIGGPRSYTIAVASLGKGVACNPACFITQLLPVKRKLGFYPWDSRLRSHINPTGTVLLQLENTMQMSKDLLL
modifications: Synthetic Polypeptide sequence of Variant No. 209 of mature Human GLA
Relative Activity of GLA Variants After Challenge at pH 7.6 [1]: + (+ = 0.5 to 1.5 relative activity over Rd2BB (SEQ ID NO: 10))
Relative Activity of GLA Variants After Challenge at pH 4.2 [2]: + (+ = 0.5 to 1.5 relative activity over Rd2BB (SEQ ID NO: 10))
Relative Activity of GLA Variants After No Challenge (NC) [3]: + (+ = 0.5 to 1.5 relative activity over Rd2BB (SEQ ID NO: 10))

B5: 210 (protein)
chain: LDNGLARTPTMGWLHWERFMCNLDCQEEPDSCISEKLFMEMAELMVSEGWKDAGYEYLCIDDCWMAPQRDSEGRLQADPQRFPHGIRQLANYVHSKGLKLGIYADVGNKTCAGFPGSFGYYDIDAQTFADWGVDLLKFDGCYCDSLENLADGYKHMSLALNRTGRSIVYSCEWPLYMWPFQKPNYTEIRQYCNHWRNFADIDDSWASIKSILDWTSFNQERIVDVAGPGGWNDPDMLVIGNFGLSWNQQVTQMALWAIMAAPLFMSNDLRHISPQAKALLQDKDVIAINQDPLGKQGYQLRQGDNFEVWERPLSGLAWAVAMINRQEIGGPRSYTIAVASLGKGVACNPACFITQLLPVKRKLGLYNWTSRLRSHINPTGTVLLQLENTMQMSKDLLL
modifications: Synthetic Polypeptide sequence of Variant No. 210 of mature Human GLA
Relative Activity of GLA Variants After Challenge at pH 7.6 [1]: ++ (++ = 1.5 to 2.5 relative activity over Rd2BB (SEQ ID NO: 10))
Relative Activity of GLA Variants After Challenge at pH 4.2 [2]: ++ (++ = 1.5 to 2.5 relative activity over Rd2BB (SEQ ID NO: 10))
Relative Activity of GLA Variants After No Challenge (NC) [3]: ++ (++ = 1.5 to 2.5 relative activity over Rd2BB (SEQ ID NO: 10))

B6: 213 (protein)
chain: LDNGLARTPTMGWLQWERFMCNLDCQEEPDSCISEKLFMEMAELMVSEGWKDAGYEYLCIDDCWMAPQRDSEGRLQADPQRFPHGIRQLANYVHSKGLKLGIYADVGNKTCAGFPGSFGYYDIDAQTFADWGVDLLKFDGCYCDSLENLADGYKHMSLALNRTGRSIVYSCEWPLYMWPFQKPNYTEIRQYCNHWRNFADIDDSWASIKSILDWTSFNQERIVDVAGPGGWNDPDMLVIGNFGLSWNQQVTQMALWAIMAAPLFMSNDLRHISPQAKALLQDKDVIAINQDPLGKQGYQLRQGDNFEVWERPLSGLAWAVAMINRQEIGGPRSYTIAVASLGKGVACNPACFITQLLPVKRKLGFYEWTSRLRSHINPTGTVLLQLENTMQMSKDLLL
modifications: Synthetic Polypeptide sequence of Variant No. 213 of mature Human GLA
Relative Activity of GLA Variants After Challenge at pH 7.6 [1]: − (− = <0.5 relative activity over Rd2BB (SEQ ID NO: 10))
Relative Activity of GLA Variants After Challenge at pH 4.2 [2]: − (− = <0.5 relative activity over Rd2BB (SEQ ID NO: 10))
Relative Activity of GLA Variants After No Challenge (NC) [3]: + (+ = 0.5 to 1.5 relative activity over Rd2BB (SEQ ID NO: 10))

B7: 211 (protein)
chain: LDNGLARTPTMGWLHWERFMCNLDCQEEPDSCISEKLFMEMAELMVSEGWKDAGYEYLCIDDCWMAPQRDSEGRLQADPQRFPHGIRQLANYVHSKGLKLGIYADVGNKTCAGFPGSFGYYDIDAQTFADWGVDLLKFDGCYCDSLENLADGYKHMSLALNRTGRSIVYSCEWPLYMWPFQKPNYTEIRQYCNHWRNFADIDDSWASIKSILDWTSFNQERIVDVAGPGGWNDPDMLVIGNFGLSWNQQVTQMALWAIMAAPLFMSNDLRHISPQAKALLQDKDVIAINQDPLGKQGYQLRQGDNFEVWERPLSGLAWAVAMINRQEIGGPRSYTIAVASLGKGVACNPACFITQLLPVKRKLGLYNWTSRLRSHVNPTGTVLLQLENTMQMSKDLLL
modifications: Synthetic Polypeptide sequence of Variant No. 211 of mature Human GLA
Relative Activity of GLA Variants After Challenge at pH 7.6 [1]: ++ (++ = 1.5 to 2.5 relative activity over Rd2BB (SEQ ID NO: 10))
Relative Activity of GLA Variants After Challenge at pH 4.2 [2]: ++ (++ = 1.5 to 2.5 relative activity over Rd2BB (SEQ ID NO: 10))
Relative Activity of GLA Variants After No Challenge (NC) [3]: ++ (++ = 1.5 to 2.5 relative activity over Rd2BB (SEQ ID NO: 10))

B8: 208 (protein)
chain: LDNGLARTPTMGWLHWERFMCNLDCQEEPDSCISEKLFMEMAELMVSEGWKDAGYEYLCIDDCWMAPQRDSEGRLQADPQRFPHGIRQLANYVHSKGLKLGIYADVGNKTCAGFPGSFGYYDIDAQTFADWGVDLLKFDGCYCDSLENLADGYKHMSLALNRTGRSIVYSCEWPLYMWPFQKPNYTEIRQYCNHWRNFADIDDSWASIKSILDWTSFNQERIVDVAGPGGWNDPDMLVIGNFGLSWNQQVTQMALWAIMAAPLFMSNDLRHISPQAKALLQDKDVIAINQDPLGKQGYQLRQGDNFEVWERPLSGLAWAVAMINRQEIGGPRSYTIAVASLGKGVACNPACFITQLLPVKRKLGFYNWTSRLKSHVNPTGTVLLQLENTMQMSKDLLL
modifications: Synthetic Polypeptide sequence of Variant No. 208 of mature Human GLA
Relative Activity of GLA Variants After Challenge at pH 7.6 [1]: +++ (+++ = >2.5 relative activity over Rd2BB (SEQ ID NO: 10))
Relative Activity of GLA Variants After Challenge at pH 4.2 [2]: +++ (+++ = >2.5 relative activity over Rd2BB (SEQ ID NO: 10))
Relative Activity of GLA Variants After No Challenge (NC) [3]: ++ (++ = 1.5 to 2.5 relative activity over Rd2BB (SEQ ID NO: 10))
